Patent US20240376170A1 (BRIGHT PEAK THERAPEUTICS, published 2024)
Bridges are numbered along the chain shown (N, C = ends). Primed or numbered codes have the meaning given here. Side-chain parts run from the residue outwards. [ ]: non-standard residue; d: D form. Ygp(4) = Tyr with amino-capped PEG8 (O-(8x polyethylene glycol-amino)-tyrosine); Yn3(4) = Tyr with azide-capped PEG9 (O-(9x polyethylene glycol-azido)-tyrosine); Ygp(8) = Tyr, amino-capped PEG8 (O-(8x polyethylene glycol-amino)-tyrosine); Yn3(8) = Tyr, azide-capped PEG9 (O-(9x polyethylene glycol-azido)-tyrosine); Ygp″ = O-(8x polyethylene glycol-amino)-tyrosine; Yn3″ = O-(9x polyethylene glycol-azido)-tyrosine; PEG9′ = 9x polyethylene glycol; hSer = N[C@@H](CCO)C(=O)O; Nle = CCCC[C@H](N)C(=O)O

T1: IL-2 receptor βγ complex (human, UniProt P14784 27-551; P31785 23-369)
T1 sequence (looked up) 1: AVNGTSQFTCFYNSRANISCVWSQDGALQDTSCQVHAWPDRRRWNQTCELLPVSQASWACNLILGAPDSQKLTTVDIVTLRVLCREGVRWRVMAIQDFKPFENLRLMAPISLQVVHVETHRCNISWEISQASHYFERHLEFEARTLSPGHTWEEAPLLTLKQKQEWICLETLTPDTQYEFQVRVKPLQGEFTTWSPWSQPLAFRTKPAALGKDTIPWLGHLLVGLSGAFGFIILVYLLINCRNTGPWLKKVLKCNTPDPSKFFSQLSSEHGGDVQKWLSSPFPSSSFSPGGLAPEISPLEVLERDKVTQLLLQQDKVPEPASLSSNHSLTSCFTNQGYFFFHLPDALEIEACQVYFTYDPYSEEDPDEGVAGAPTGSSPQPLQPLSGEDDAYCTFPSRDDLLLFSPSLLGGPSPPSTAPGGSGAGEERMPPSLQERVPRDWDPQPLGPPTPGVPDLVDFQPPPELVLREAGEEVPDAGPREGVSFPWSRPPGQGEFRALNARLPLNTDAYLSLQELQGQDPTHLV
T1 sequence (looked up) 2: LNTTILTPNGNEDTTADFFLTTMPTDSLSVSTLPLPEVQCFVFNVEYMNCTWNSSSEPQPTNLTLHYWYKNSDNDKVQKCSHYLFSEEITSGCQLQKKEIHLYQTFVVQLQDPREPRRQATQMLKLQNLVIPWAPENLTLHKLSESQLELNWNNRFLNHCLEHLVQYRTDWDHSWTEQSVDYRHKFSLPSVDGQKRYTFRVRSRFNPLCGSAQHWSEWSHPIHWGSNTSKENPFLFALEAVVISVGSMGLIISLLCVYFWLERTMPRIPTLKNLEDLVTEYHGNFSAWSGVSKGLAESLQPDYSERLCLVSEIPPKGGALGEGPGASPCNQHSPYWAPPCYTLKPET

T2: IL-2Rβγ on HEK-Blue IL-2Rβγ reporter cells (InvivoGen) (UniProt P14784 27-551; P31785 23-369, limits assumed)
T2 sequence (looked up) 1: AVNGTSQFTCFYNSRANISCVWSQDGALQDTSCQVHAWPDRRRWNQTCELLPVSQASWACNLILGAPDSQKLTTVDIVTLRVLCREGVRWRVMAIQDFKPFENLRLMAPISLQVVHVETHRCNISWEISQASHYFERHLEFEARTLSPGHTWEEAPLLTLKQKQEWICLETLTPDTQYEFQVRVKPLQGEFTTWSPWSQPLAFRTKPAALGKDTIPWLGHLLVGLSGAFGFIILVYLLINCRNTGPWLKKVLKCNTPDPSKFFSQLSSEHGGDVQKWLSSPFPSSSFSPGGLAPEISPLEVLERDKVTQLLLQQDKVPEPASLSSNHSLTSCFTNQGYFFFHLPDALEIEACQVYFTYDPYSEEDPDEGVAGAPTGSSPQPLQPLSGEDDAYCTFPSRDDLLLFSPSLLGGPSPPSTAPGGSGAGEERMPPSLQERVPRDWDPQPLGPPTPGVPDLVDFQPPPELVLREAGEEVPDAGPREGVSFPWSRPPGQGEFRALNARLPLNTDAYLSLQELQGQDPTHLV
T2 sequence (looked up) 2: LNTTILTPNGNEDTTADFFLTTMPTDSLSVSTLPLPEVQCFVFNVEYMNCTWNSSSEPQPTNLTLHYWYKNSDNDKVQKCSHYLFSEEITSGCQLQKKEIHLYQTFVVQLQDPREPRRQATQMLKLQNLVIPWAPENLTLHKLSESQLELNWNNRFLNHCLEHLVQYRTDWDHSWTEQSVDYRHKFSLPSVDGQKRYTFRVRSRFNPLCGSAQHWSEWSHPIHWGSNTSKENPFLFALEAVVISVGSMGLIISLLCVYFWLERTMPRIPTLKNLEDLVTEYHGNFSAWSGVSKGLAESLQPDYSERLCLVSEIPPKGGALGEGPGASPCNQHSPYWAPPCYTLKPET


biological target: T1, IL-2 receptor βγ complex; assay: cell-based or functional assay

| Binder | Average EC50, pSTAT5 Assay in NK cells [nM] |
| --- | --- |
| CMP-324 (ligand, not fully specified (residue 26); ends and bridges not checked; also: Glu26 side chain attached to another sequence (short peptide)) LVGAPTSSSTKKTQLQLEHLLLDLQEILNGINNYKNPKLTR[Nle]L[hSer][Yn3″]KF[Ygp″][Nle]PKKATELKHLQCLEEELKPLEEVL[hSer]LAQSKNFHLRPRDLISNINVIVLELKGSETTF[hSer]CEYADETATIVEFLNRWITFSQSIISTLT | 0.38 |
| CMP-321 (ligand, lactam N-32) SGRVQPLVDAPTSSSTKKTQLQLEHLLLDLQEILNGINNYKNPKLTR[Nle]L[hSer][Yn3(8)]KF[Ygp(8)][Nle]PKKATELKHLQCLEEELKPLEEVL[hSer]LAQSKNFHLRPRDLISNINVIVLELKGSETTF[hSer]CEYADETATIVEFLNRWITFSQSIISTLT | 55.1 |
| CMP-321, MMP2 cleaved molecule (ligand, lactam N-32; also: MMP2 cleaved, cleavage site and product not given here) SGRVQPLVDAPTSSSTKKTQLQLEHLLLDLQEILNGINNYKNPKLTR[Nle]L[hSer][Yn3(8)]KF[Ygp(8)][Nle]PKKATELKHLQCLEEELKPLEEVL[hSer]LAQSKNFHLRPRDLISNINVIVLELKGSETTF[hSer]CEYADETATIVEFLNRWITFSQSIISTLT | 2.94 |
| CMP-320 (ligand, lactam N-34) SGRVAPQPLVDAPTSSSTKKTQLQLEHLLLDLQEILNGINNYKNPKLTR[Nle]L[hSer][Yn3(8)]KF[Ygp(8)][Nle]PKKATELKHLQCLEEELKPLEEVL[hSer]LAQSKNFHLRPRDLISNINVIVLELKGSETTF[hSer]CEYADETATIVEFLNRWITFSQSIISTLT | 13.2 |
| CMP-325 (ligand, not fully specified; ends and bridges not checked) RVANLVGAPTSSSTKKTQLQLEHLLLDLQE([Arg-Gly-Arg])ILNGINNYKNPKLTR[Nle]L[hSer][Yn3″]KF[Ygp″][Nle]PKKATELKHLQCLEEELKPLEEVL[hSer]LAQSKNFHLRPRDLISNINVIVLELKGSETTF[hSer]CEYADETATIVEFLNRWITFSQSIISTLT | 0.18 |
| CMP-323 (ligand, not fully specified; ends and bridges not checked) LVGAPTSSSTKKTQLQLEHLLLDLQE([Arg-Gly-Arg])ILNGINNYKNPKLTR[Nle]L[hSer][Yn3″]KF[Ygp″][Nle]PKKATELKHLQCLEEELKPLEEVL[hSer]LAQSKNFHLRPRDLISNINVIVLELKGSETTF[hSer]CEYADETATIVEFLNRWITFSQSIISTLT | 0.13 |

biological target: T2, IL-2Rβγ on HEK-Blue IL-2Rβγ reporter …; assay: cell-based or functional assay

| Binder | Average EC50, HEK-Blue IL-2R (CD122+, CD132+) Reporter Assay, MMP2 cleaved molecule [nM] | Average EC50, HEK-Blue IL-2R (CD122+, CD132+) Reporter Assay, intact molecule [nM] |
| --- | --- | --- |
| CMP-304, MMP2 cleaved (ligand, ends and bridges not checked; also: MMP2 cleaved, ring opened, cut site and remnants not given here) PLGLAGAPTSSSTKKTQLQLEHLLLDLQEILNGINNYKNPKLTR[Nle]L[hSer][Yn3(4)]KF[Ygp(4)][Nle]PKKATELKHLQCLEEELKPLEEVL[hSer]LAQSKNFHLRPRDLISNINVIVLELKGSETTF[hSer]CEYADETATIVEFLNRWITFSQSIISTLT | 0.021 | – |
| CMP-301, MMP2 cleaved (ligand, ends and bridges not checked; also: MMP2 cleaved, ring opened, cut site and remnants not given here) APTSSSTKKTQLQLEHLLLDLQEILNGINNYKNPKLTR[Nle]L[hSer][Yn3″]KF[Ygp″][Nle]PKKATELKHLQCLEEELKPLEEVL[hSer]LAQSKNFHLRPRDLISNINVIVLELKGSETTF[hSer]CEYADETATIVEFLNRWITFSQSIISTLT | 0.00726 | – |
| CMP-304 (ligand, bridge N-29; not fully specified (N-terminus, bridges); ends not checked) PLGLAGAPTSSSTKKTQLQLEHLLLDLQEILNGINNYKNPKLTR[Nle]L[hSer][Yn3(4)]KF[Ygp(4)][Nle]PKKATELKHLQCLEEELKPLEEVL[hSer]LAQSKNFHLRPRDLISNINVIVLELKGSETTF[hSer]CEYADETATIVEFLNRWITFSQSIISTLT | – | 0.34 |
| CMP-302, MMP2 cleaved (ligand, ends and bridges not checked; also: MMP2 cleaved, ring opened, cut site and remnants not given here) GPLGLAGAPTSSSTKKTQLQLEHLLLDLQEILNGINNYKNPKLTR[Nle]L[hSer][Yn3″]KF[Ygp″][Nle]PKKATELKHLQCLEEELKPLEEVL[hSer]LAQSKNFHLRPRDLISNINVIVLELKGSETTF[hSer]CEYADETATIVEFLNRWITFSQSIISTLT | 0.00646 | – |
| CMP-301 (ligand, lactam N-31; ends not checked) GPLGLAG[PEG9′]APTSSSTKKTQLQLEHLLLDLQEILNGINNYKNPKLTR[Nle]L[hSer][Yn3″]KF[Ygp″][Nle]PKKATELKHLQCLEEELKPLEEVL[hSer]LAQSKNFHLRPRDLISNINVIVLELKGSETTF[hSer]CEYADETATIVEFLNRWITFSQSIISTLT | – | 0.591 |
| CMP-303 (ligand, bridge N-29; not fully specified (N-terminus, bridges); ends not checked) PLGLAGAPTSSSTKKTQLQLEHLLLDLQEILNGINNYKNPKLTR[Nle]L[hSer][Yn3″]KF[Ygp″][Nle]PKKATELKHLQCLEEELKPLEEVL[hSer]LAQSKNFHLRPRDLISNINVIVLELKGSETTF[hSer]CEYADETATIVEFLNRWITFSQSIISTLT | – | 0.521 |
| CMP-303, MMP2 cleaved (ligand, ends and bridges not checked; also: MMP2 cleaved, ring opened, cut site and remnants not given here) PLGLAGAPTSSSTKKTQLQLEHLLLDLQEILNGINNYKNPKLTR[Nle]L[hSer][Yn3″]KF[Ygp″][Nle]PKKATELKHLQCLEEELKPLEEVL[hSer]LAQSKNFHLRPRDLISNINVIVLELKGSETTF[hSer]CEYADETATIVEFLNRWITFSQSIISTLT | 0.0218 | – |
| CMP-302 (ligand, lactam N-30; ends not checked) GPLGLAGAPTSSSTKKTQLQLEHLLLDLQEILNGINNYKNPKLTR[Nle]L[hSer][Yn3″]KF[Ygp″][Nle]PKKATELKHLQCLEEELKPLEEVL[hSer]LAQSKNFHLRPRDLISNINVIVLELKGSETTF[hSer]CEYADETATIVEFLNRWITFSQSIISTLT | – | 0.436 |
